In patent US11230581B2, “Peptides and combination of peptides for use in immunotherapy against ovarian cancer and other cancers” (Immatics Biotechnologies GmbH, priority 2015, dated 2022):

biological target: HLA-A*02:01 (Homo sapiens, UniProt P04439, D140Y/D185E/D98H/E176V/E277Q/G131W/G231S/I119V/I121R/I166T/I218V/L300P/L318F/N151K/N90K/P208A/P217A/Q86G/Q94H/R138H/R169H/T345S); assay: MHC binding assay (UV-ligand exchange, β2m ELISA, peptide exchange yield); conditions: binding of HLA-class I restricted peptides to HLA-A*02:01, UV-ligand exchange
How it was run: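 Peptide-MHC complexes formed by UV-ligand exchange, cleaving a UV-sensitive placeholder peptide in favour of the test peptide. Exchange yield measured by ELISA: monomers diluted 100-fold onto streptavidin-coated plates, 1 h 37 °C, detected with 2 ug/ml HRP anti-β2m and TMB, absorbance at 450 nm.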

Peptide exchange (MHC class I binding score, peptide exchange yield)	Substance
“+++” (≥50 = +++)	307 (ALPVSLPQI; listed as Homo sapiens) [compound 307]
“+++” (≥50 = +++)	308 (SQYSGQLHEV; listed as Homo sapiens) [compound 308]
“+++” (≥50 = +++)	309 (GLFDGVPTTA; listed as Homo sapiens) [compound 309]
“++++” (≥75% = ++++)	310 (FLVDTPLARA; listed as Homo sapiens) [compound 310]
“+++” (≥50 = +++)	311 (RLYTGMHTV; listed as Homo sapiens) [compound 311]
“+++” (≥50 = +++)	312 (IISDLTIAL; listed as Homo sapiens) [compound 312]
“+++” (≥50 = +++)	313 (VLFDDELLMV; listed as Homo sapiens) [compound 313]
“+++” (≥50 = +++)	314 (ALIAEGIALV; listed as Homo sapiens) [compound 314]
“+++” (≥50 = +++)	315 (YLQDVVEQA; listed as Homo sapiens) [compound 315]
“+++” (≥50 = +++)	316 (ILLERLWYV; listed as Homo sapiens) [compound 316]
“+++” (≥50 = +++)	317 (SLAALVVHV; listed as Homo sapiens) [compound 317]
“++” (≥20% = ++)	318 (GLINTGVLSV; listed as Homo sapiens) [compound 318]
“++” (≥20% = ++)	319 (SLEPQIQPV; listed as Homo sapiens) [compound 319]
“++++” (≥75% = ++++)	320 (KMFEFVEPLL; listed as Homo sapiens) [compound 320]
“++++” (≥75% = ++++)	321 (GLFEDVTQPGILL; listed as Homo sapiens) [compound 321]
“+++” (≥50 = +++)	322 (TLMTSLPAL; listed as Homo sapiens) [compound 322]
“+++” (≥50 = +++)	324 (FLYDEIEAEV; listed as Homo sapiens) [compound 324]
“+++” (≥50 = +++)	325 (FIMPATVADATAV; listed as Homo sapiens) [compound 325]
“+++” (≥50 = +++)	326 (FLPEALDFV; listed as Homo sapiens) [compound 326]
“+++” (≥50 = +++)	327 (GLAPFTEGISFV; listed as Homo sapiens) [compound 327]
“+++” (≥50 = +++)	328 (ALNDQVFEI; listed as Homo sapiens) [compound 328]
“++++” (≥75% = ++++)	329 (FLVTLNNVEV; listed as Homo sapiens) [compound 329]

Peptide exchange (MHC class I binding score, peptide exchange yield)	Substance
“+++” (≥50 = +++)	330 (QLALKVEGV; listed as Homo sapiens) [compound 330]
“+++” (≥50 = +++)	331 (KVDTVWVNV; listed as Homo sapiens) [compound 331]
“+++” (≥50 = +++)	332 (YLISELEAA; listed as Homo sapiens) [compound 332]
“++” (≥20% = ++)	333 (FLPDANSSV; listed as Homo sapiens) [compound 333]
“+++” (≥50 = +++)	334 (TLTKVLVAL; listed as Homo sapiens) [compound 334]
“+++” (≥50 = +++)	335 (YSLSSVVTV; listed as Homo sapiens) [compound 335]
“+++” (≥50 = +++)	336 (ILLTAIVQV; listed as Homo sapiens) [compound 336]
“++++” (≥75% = ++++)	337 (HLLSELEAAPYL; listed as Homo sapiens) [compound 337]
“++++” (≥75% = ++++)	339 (GLWEIENNPTVKA; listed as Homo sapiens) [compound 339]
“++++” (≥75% = ++++)	340 (ALLSMTFPL; listed as Homo sapiens) [compound 340]
“+++” (≥50 = +++)	341 (SQIALNEKLVNL; listed as Homo sapiens) [compound 341]
“+++” (≥50 = +++)	342 (HIYDKVMTV; listed as Homo sapiens) [compound 342]
“+++” (≥50 = +++)	343 (SLLEVNEESTV; listed as Homo sapiens) [compound 343]
“+++” (≥50 = +++)	344 (YLQDQHLLLTV; listed as Homo sapiens) [compound 344]
“+++” (≥50 = +++)	345 (VIWKALIHL; listed as Homo sapiens) [compound 345]
“+++” (≥50 = +++)	346 (LLDSKVPSV; listed as Homo sapiens) [compound 346]
“++++” (≥75% = ++++)	347 (SLFKHDPAAWEA; listed as Homo sapiens) [compound 347]
“++++” (≥75% = ++++)	348 (ILLDVKTRL; listed as Homo sapiens) [compound 348]
“++++” (≥75% = ++++)	349 (SLTEYLQNV; listed as Homo sapiens) [compound 349]
“+++” (≥50 = +++)	350 (ALLDVTHSELTV; listed as Homo sapiens) [compound 350]
“+++” (≥50 = +++)	351 (SLIPNLRNV; listed as Homo sapiens) [compound 351]
“+++” (≥50 = +++)	352 (SLLELLHIYV; listed as Homo sapiens) [compound 352]

Peptide exchange (MHC class I binding score, peptide exchange yield)	Substance
“++” (≥20% = ++)	353 (YLFEMDSSL; listed as Homo sapiens) [compound 353]
“++” (≥20% = ++)	354 (LILEGVDTV; listed as Homo sapiens) [compound 354]
“++” (≥20% = ++)	355 (SIQQSIERLLV; listed as Homo sapiens) [compound 355]
“+++” (≥50 = +++)	356 (KLLGKLPEL; listed as Homo sapiens) [compound 356]
“+++” (≥50 = +++)	357 (SMHDLVLQV; listed as Homo sapiens) [compound 357]
“++++” (≥75% = ++++)	358 (ALDEYTSEL; listed as Homo sapiens) [compound 358]
“+++” (≥50 = +++)	359 (YLLPESVDL; listed as Homo sapiens) [compound 359]
“+++” (≥50 = +++)	361 (ALYELEGTTV; listed as Homo sapiens) [compound 361]
“+++” (≥50 = +++)	362 (TLYGLSVLL; listed as Homo sapiens) [compound 362]
“++” (≥20% = ++)	363 (KVLDVSDLESV; listed as Homo sapiens) [compound 363]
“+++” (≥50 = +++)	364 (LLQNEQFEL; listed as Homo sapiens) [compound 364]
“+++” (≥50 = +++)	365 (YVIDQGETDVYV; listed as Homo sapiens) [compound 365]
“+++” (≥50 = +++)	366 (RLLDMGETDLML; listed as Homo sapiens) [compound 366]
“+++” (≥50 = +++)	367 (SLQNHNHQL; listed as Homo sapiens) [compound 367]
“+++” (≥50 = +++)	369 (GLFPEHLIDV; listed as Homo sapiens) [compound 369]
“+++” (≥50 = +++)	370 (SLLQDLVSV; listed as Homo sapiens) [compound 370]
“++++” (≥75% = ++++)	371 (FLQAHLHTA; listed as Homo sapiens) [compound 371]
“++” (≥20% = ++)	372 (TMLLNIPLV; listed as Homo sapiens) [compound 372]
“++” (≥20% = ++)	373 (SLLEDKGLAEV; listed as Homo sapiens) [compound 373]
“++” (≥20% = ++)	374 (FLLQQHLISA; listed as Homo sapiens) [compound 374]
“++” (≥20% = ++)	375 (SLTETIEGV; listed as Homo sapiens) [compound 375]
“++” (≥20% = ++)	376 (AMFESSQNVLL; listed as Homo sapiens) [compound 376]
